Test system: K4 kissing-loop RNA reporter
Assay: apparent KD of K4 kissing-loop reporter; higher = weaker reporter binding
Details: Eterna round: R107
Description: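 RNA-MaP round R107: designed RNA switches with theophylline, tryptophan, arginine or FMN aptamers are transcribed on-chip within common flanks. They are titrated with a labelled K4 kissing-loop RNA reporter in RNA-MaP buffer (100 mM Tris pH 7.5, 80 mM KCl, 4 mM MgCl2), without ligand or with the indicated ligand. Median apparent KD per design.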

[1] = input ligand: theophylline 20 uM
[2] = input ligand: tryptophan 2.4 mM
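Further: bound reporter read as fluorescence of individual clusters on recovered sequencing chips by microscopy, with normalized cluster intensities fitted with a binding model.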

Sequence	apparent KD of K4 kissing-loop reporter (input ligand: FMN 200 uM)	apparent KD of K4 kissing-loop reporter (input ligand: arginine 13.2 mM)	apparent KD of K4 kissing-loop reporter (input ligand: none)	apparent KD of K4 kissing-loop reporter [1]	apparent KD of K4 kissing-loop reporter [2]
AAUACGAAGCAGUGAUGUUGCUUAUGAGAAGGAGCGCACGAAAGUGCAGGUAGGUCGCUCAGCCAAGUGGACGAAAACGUCCACA [whbob_SS_Arginine_A_sa108]	96.4 nM	116 nM	98.4 nM	127 nM	90.6 nM
AAUAUAGUGAUGUUAUAUAAGAAGGAGUUACGAGGACCGGUACGGCCGCCACUCGAAACGAGUGAGGGCCCGGGAGAUUGGGCCC [SSTryptA.G]	339 nM	275 nM	320 nM	436 nM	262 nM
ACACAGAGUUGCCGAGUGAUGUUCGGCUUACGAGGACCGGUACGGCCGCCACUCGUUACUCUGUGUUUUGGACACCAAGGCGUAG [Edvemaquan]	565 nM	492 nM	675 nM	497 nM	169 nM
ACCAUCAAAGAUGGCCAGGACACCGCUGAUACCAGAGUGAAAACACUCCCUUGGCAGCAGGUGAGUGAUGUUCACAGUCCAUGGA [Omel KL Theo A SS B v2]	566 nM	422 nM	588 nM	901 nM	361 nM
ACCUACGAUCACAAUAGUGAUUGUAGGAACUAGGAUAUGCUGAAAAGCAGAAGGAGUGAUGUUCCGUCAUGAAUAACAUGACAAA [FmnAX 5 #OpenEnded #K4Late #CoaxialStacking]	251 nM	525 nM	495 nM	594 nM	336 nM
ACGAUCAUGGCAGGAUAUACGAAUGCAUUAGGGCUGCCAGUGAUGUUGGUGGACCGAGGACGUAGAGUAGAAGGGCCGACUUAAA [Leonmain]	138 nM	169 nM	139 nM	86.4 nM	157 nM
ACGCGCGCGAGUGAUGUUCGGAGCGGCUGGCAGGAUAUGUAGCAAUGCAGAAGGGUCGUGGCGCGUCCAGGGUAACCUGGACGCG [#2 Exclusion - FMN A Attempt #26 (HarryS)]	280 nM	229 nM	1040 nM	455 nM	719 nM
ACGCUAGCUACCGAAAGGUAGCUAGCGAGUGAGGAUAUGUGGAAACACAGAAGGCACAGCGCAGUGAUGUUGUGCGGCGGAAGCG [whbob_SS_FMNA__2th168]	604 nM	221 nM	631 nM	664 nM	473 nM
ACGCUGGAUGAAUAACAUCUAGCGAAAAUUCGAGGACCGGUACGGCCGCCACUCGAGCUAACUGCGAGUGAUGUUCGAUAAUAAA [Mat - Mod of OpenEnded 3 - D6]	196 nM	374 nM	309 nM	497 nM	72.1 nM
ACGUAGUUCUAGGAUACCAGCCAAGGAGCGCAGGACAAAAGUCCUGCCGCCAGUGAUGUUGGCCCUUGGCAGCCUAGAACUACGA [Omei KL Theo B Exc B v1]	193 nM	162 nM	145 nM	165 nM	160 nM
ACGUAGUUCUAGGAUACCAGCCAAGGUCGCCAGGACAAAAGUCCUGGCGCCAGUGAUGUUGGCCCUUGGCAGCCUAGAACUACGA [Omei KL Theo B Exc B v6]	195 nM	176 nM	176 nM	174 nM	203 nM
ACGUAUAUCAGAGGAUAUCGUAUUAAUAUUUUAUCUAUAUAUAUAUGCAGUGAUGUUGCUAUAAUUCGAGAAGGCUGAUUUACGA [JR_ExcFMNB_Sub011]	109 nM	109 nM	84 nM	120 nM	81.4 nM
ACGUCAUAUGUAAUGGUGGUUUCGAUCGAUACCAGUAGCGAGAGUUACCCUUGGCAGCGACAUGAGUGAUGUUCAUGUAUGAAGA [KL-XTheo-A2 #analogue]	116 nM	109 nM	107 nM	120 nM	105 nM
ACUAUCAUUACGCAUGGAGUGAUGUUUCAGCGAGGACCGGUACGGCCGCCACUCGUUACGUGGUUAGAGCCAAUGUUCGAGAAGC [theeternabot_exclusion_KL_Trp_A_39]	1170 nM	832 nM	927 nM	1270 nM	520 nM
ACUAUGGAGUGAUGUUCCCGCGUCAUUGAUACCAGAAUGUAUACCUUCCCUUGGCAGCAAUUCAUCGCACGUAUACUUAUACAAG [theeternabot_sameState_KL_Theo_A_31]	585 nM	541 nM	665 nM	841 nM	541 nM
AGAAGAGUGAUGUUCUUCUAUAUCUCAGAAGGAGCGACAUUAAUGUCAGGUAGGUCGCUGAGAUGAAAUCUCACACAGAUCUUGG [Arg A SS t8a]	145 nM	154 nM	149 nM	178 nM	125 nM
AGAAUAAUAAAUUUGGAGUGAUGUUCCGGACGAGGACCGGUACGGCCGCCACUCGAAAGCAGUCUGCGAAAGCAGACUGCAAGGA [Tesla SS Tryp A 1]	817 nM	449 nM	580 nM	349 nM	645 nM
AGACCACAAAGUGGUCAGUGUUCGCUGCGGCGAGGACCGGUACGGCCGCCACUCGCGAGUGAUGUUCGCGAGCGCAGCGAACACA [Omei KL Tryp A Exc A v3]	89.4 nM	88.8 nM	92.7 nM	65 nM	88.5 nM
AGACCCUGGUAGGAUACCAGCGGCAUGCAGUGCGAGAGAGCGUAGUGAUGUUACGAGACCCGCCCUUGGCAGCCUGGGAAUGUGU [theeternabot_exclusion_KL_Theo_B_50]	90.1 nM	67.8 nM	79.8 nM	75.5 nM	72.6 nM
AGACUACCACACUGUCAAUAGACAGUGAACUCGGAUAUGCUGAUAAGCAGAAGGAGUGAUGUUCCGAGGUAGUCAAUAAAAUAAU [FmnAX 13 C32+G66]	263 nM	316 nM	568 nM	448 nM	521 nM
AGACUACCACACUGUCAAUAGACAGUGAACUCGGAUAUGCUGAUAAGCAGAAGGAGUGAUGUUCCUAGGUAGUCAAUAAAAUAAU [FmnAX 13 C32]	160 nM	242 nM	376 nM	370 nM	359 nM

Sequence	apparent KD of K4 kissing-loop reporter (input ligand: FMN 200 uM)	apparent KD of K4 kissing-loop reporter (input ligand: arginine 13.2 mM)	apparent KD of K4 kissing-loop reporter (input ligand: none)	apparent KD of K4 kissing-loop reporter [1]	apparent KD of K4 kissing-loop reporter [2]
AGACUACCUACACUGUCAAUAGACAGUGACUAGGAUAUGCUGAUAAGCAGAAGGAGUGAUGUUCCUAAUAAAAGGUGGUAGUCAU [FmnAX 19 #SwitchBubble #StaticStem #K4Early]	309 nM	258 nM	230 nM	284 nM	173 nM
AGACUACUGACAGGAUAUAACAUAUUAGCUCGUAUACCAAAGGUAUACGAGCACCUUCUAGUGAUGUUAGAAGGGUCGGUAGUCA [Omei KL FMN B Exc B v1]	297 nM	99.8 nM	106 nM	96.2 nM	118 nM
AGAGAGGUGUUUUUUUGAUGUGAGUAAUGGCGAGGACCGGUACGGCCGCCACUCGGGUGAUGUUAGUGAUGUUGAUGUAGUGAUG [p'pmullin]	79.4 nM	66.6 nM	71.1 nM	131 nM	77 nM
AGAGUCAGACAAAAGUCUGGCUCAGCCGAAGGAGCGUCCGUAAGGACAGGUAGGUCGCGGCUAUUUGAGUGAUGUUUGGGUUCCU [KL-SSArg-A20]	281 nM	144 nM	231 nM	233 nM	212 nM
AGAGUUAAUUAGUCAUUUUUCACAUUAAGUCAGGAUAUCGUAUUUUCGAGAAGGGACACAUGCUAGUGAUGUUAGCUAUUUCUCA [JR_Nu_ExcFMNA_Sub021]	63.6 nM	93.9 nM	68.3 nM	105 nM	56.9 nM
AGAGUUAUGAGAGGAUAUGCGGCUAGUACUCAAAGAGUACUAGCAGCGGAGUGAUGUUCUGUGAAAGCAGAAGGUUCAUAACUCA [#07 K4 FMN B Same State]	159 nM	1350 nM	1100 nM	907 nM	1350 nM
AGAUCUGUAACAGAUACCAGAGGACGAUGAUCGGACAGUGAUGUUAUCUGUCAGUCGUCGCUCCCUUGGCAGCUGUUACAGAUCA [Omei KL Theo B SS B v3]	78.1 nM	43.1 nM	73.7 nM	94.9 nM	65.2 nM
AGAUGACAGGGAGGAUAUCCUAAUAUGGGUGAUGUUAGCGAUGUUGAAGGUGUAGUGAUGUUAUGCGGAGAAGGCCCUGUUGUUU [BDazzled - #23 - Exc. FMN B]	82.4 nM	61.7 nM	115 nM	78.7 nM	78.5 nM
AGCAAUAUCACGGCCGCCACUGAAUAUUGUUUUUAUAGUUAUAAAUCUUGCCAGUGAUGUUGGUUCAGGACCGGGUGAGUUAAUA [JR_SSTryptoB_Sub003]	572 nM	596 nM	625 nM	748 nM	429 nM
AGCAGCAAAUCCUAGUGAUGUUAGGAUAUGUAGGAUAUCGGGAUACCGAGAAGGACAGAAGGAGGAGUGAUGUUCCUAAGCUGCA [FmnAX 24 #DoubleAptamer #DoubleK4 #SwitchBubble]	143 nM	112 nM	114 nM	122 nM	107 nM
AGCCAUCACACGGCCGCCACUGAGUAGUGAUGUUGCUUGUAAAUCAGUCACCGCAUUAAUGCCGACAGGACCGGGUGCAUCGAGG [theeternabot_exclusion_KL_Trp_B_17]	327 nM	142 nM	327 nM	394 nM	247 nM
AGCGAUGUUUUCUCUAAGAGUGAUGUUUUUCGAGGACCGGUACGGCCGCCACUCGAAUAAAGAGUGUGGUAGUGAGCUGUUGACU [qqmullin]	622 nM	256 nM	451 nM	442 nM	278 nM
AGCUAUUAGACGGCCGCCACUUGCUCUGAGACCUGACAUGGAACCAGUGAUGUUGGUUUGCGUGUAAGGACCGGGUUUGGUGGCG [Tiesbi]	107 nM	92.2 nM	99.1 nM	88.7 nM	104 nM
AGGAGUGAUGUUCCUACAUACACGGUCCGACGAGGACCGGUACGGCCGCCACUCGCGUCCCAGUGAUGUUGGGAUUUGGCGUACA [Exclusion Tryptophan A Gf 16]	162 nM	168 nM	180 nM	141 nM	144 nM
AGGAUCACGUCAGUGAUGUUGACAAGAGAUACCAGAGACGAAAGUCUCCCUUGGCAGCUCAUUGUGAUCCGUGACAAAGGUCACA [Omei KL hio A SS C v2]	353 nM	293 nM	413 nM	593 nM	186 nM
AGGAUCCACCAGUGAUGUUGGAAAUACUCCAAGGAUAUGACGAAAGUCAGAAGGUGGUAGACUGGACAAAGUCCAGUCGGAUCCA [FmnA 28 #SwitchBubble #K4Early]	534 nM	247 nM	602 nM	486 nM	346 nM
AGGAUCCGUCGACAAAAGUCGACAUAAUCCGAGGAUAUGACGAAAGUCAGAAGGUGGACAUAAGUCCAGUGAUGUUGGAGGAUCC [FmnA 17 #SwitchBubble #K4Late]	847 nM	218 nM	441 nM	420 nM	193 nM
AGGAUGUAGUGAUGUUAUAUAAGAAGUAAACGAGGACCGGUACGGCCGCCACUCGAAGCGGCUACUAGCGCGCCGCGAGGCGCGC [ExTryptoA.Cb]	370 nM	391 nM	958 nM	361 nM	358 nM
AGGAUGUAGUGAUGUUAUAUAAGAAGUAAACGAGGACCGGUACGGCCGCCACUCGAAGCGGCUACUAGCGCGUUGCGAGGUGUGC [ExTryptoA.Ce]	492 nM	384 nM	581 nM	656 nM	378 nM
AGGCACGAGCAAGGAUAUCGAGUAGAGUGAUGUUCUGCCUGGGUUGGCUCGAAAGGGCCUUCCCAGCGAGAAGGUGCUCGUGCCU [#2 Same State - FMN A Attempt #14 (HarryS)]	219 nM	325 nM	300 nM	1040 nM	619 nM
AGGCACGAGCAAGGAUAUCGAGUAGAGUGAUGUUCUGCCUGGGUUGGCUCGUAAGGGCCUUCCCAGCGAGAAGGUGCUCGUGCCU [#2 Same State - FMN A Attempt #15 (HarryS)]	221 nM	632 nM	877 nM	581 nM	757 nM
